Results taken from paper PMC9482650, “Quantitative fragmentomics allow affinity mapping of interactomes” (Nature Communications, 2022).

What was measured:
Assay in all cases: holdup assay
Set-up in all cases: key: below the threshold = too weak to quantify, mostly under pKd 3.1 to 4
Details in all cases: plain residues with an end cap or a label only (N-terminal biotin on a linker: ttds)
APBA1_1, Q02410 = target: T1, APBA1_1, Q02410
T1 sequence (Q02410 651-752, limits assumed, looked up): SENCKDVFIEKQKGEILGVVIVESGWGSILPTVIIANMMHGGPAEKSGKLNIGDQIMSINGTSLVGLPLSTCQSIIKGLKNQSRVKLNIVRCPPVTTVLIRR

CASK, O14936 = target: CASK, O14936
Chain of CASK, O14936 (O14936 487-570): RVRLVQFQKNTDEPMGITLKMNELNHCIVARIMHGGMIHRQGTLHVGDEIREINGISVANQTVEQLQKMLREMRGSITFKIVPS

DLG3_1, Q92796 = target: T2, DLG3_1, Q92796
T2 sequence (Q92796 125-227, limits assumed, looked up): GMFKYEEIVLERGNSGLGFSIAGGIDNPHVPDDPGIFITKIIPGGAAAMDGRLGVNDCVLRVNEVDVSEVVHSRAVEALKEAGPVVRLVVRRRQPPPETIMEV

DLG3_2, Q92796 = target: T3, DLG3_2, Q92796
T3 sequence (Q92796 221-321, limits assumed, looked up): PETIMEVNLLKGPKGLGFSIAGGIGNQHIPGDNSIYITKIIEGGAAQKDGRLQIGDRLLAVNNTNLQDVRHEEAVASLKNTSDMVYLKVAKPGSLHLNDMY

DLG3_3, Q92796 = target: T4, DLG3_3, Q92796
T4 sequence (Q92796 374-475, limits assumed, looked up): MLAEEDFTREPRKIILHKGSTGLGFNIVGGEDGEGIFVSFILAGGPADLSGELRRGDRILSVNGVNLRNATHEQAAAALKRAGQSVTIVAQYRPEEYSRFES

DLG4_2, P78352 = target: DLG4_2, P78352
Chain of DLG4_2, P78352 (P78352 155-259): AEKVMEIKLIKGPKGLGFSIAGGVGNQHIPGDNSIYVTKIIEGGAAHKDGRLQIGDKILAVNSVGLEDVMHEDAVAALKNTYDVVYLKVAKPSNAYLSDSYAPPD

FRMPD2_3, Q68DX3 = target: FRMPD2_3, Q68DX3
Chain of FRMPD2_3, Q68DX3 (Q68DX3 1073-1166): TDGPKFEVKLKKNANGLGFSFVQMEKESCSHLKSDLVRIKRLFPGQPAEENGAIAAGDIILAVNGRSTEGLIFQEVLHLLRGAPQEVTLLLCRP

GIPC2, Q8TF65 = target: GIPC2, Q8TF65
Chain of GIPC2, Q8TF65 (Q8TF65 112-203): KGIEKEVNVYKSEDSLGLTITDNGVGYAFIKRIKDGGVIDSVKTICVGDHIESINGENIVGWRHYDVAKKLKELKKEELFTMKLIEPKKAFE

GRIP1_2, Q9Y3R0 = target: T5, GRIP1_2, Q9Y3R0
T5 sequence (Q9Y3R0 145-248, limits assumed, looked up): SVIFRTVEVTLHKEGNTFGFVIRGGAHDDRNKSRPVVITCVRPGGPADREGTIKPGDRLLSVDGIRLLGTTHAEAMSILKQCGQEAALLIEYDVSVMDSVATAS

Inadl_3, Q8NI35 = target: Inadl_3, Q8NI35
Chain of Inadl_3, Q8NI35 (Q8NI35 359-469): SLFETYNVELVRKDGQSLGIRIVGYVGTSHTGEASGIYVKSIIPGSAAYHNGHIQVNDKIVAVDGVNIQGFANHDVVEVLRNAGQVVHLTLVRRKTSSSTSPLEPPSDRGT

Inadl_8, Q8NI35 = target: Inadl_8, Q8NI35
Chain of Inadl_8, Q8NI35 (Q8NI35 1425-1530): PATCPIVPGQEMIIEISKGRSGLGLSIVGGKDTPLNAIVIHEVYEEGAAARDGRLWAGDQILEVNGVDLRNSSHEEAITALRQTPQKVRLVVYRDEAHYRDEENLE

Inadl_9, Q8NI35 = target: Inadl_9, Q8NI35
Chain of Inadl_9, Q8NI35 (Q8NI35 1530-1615): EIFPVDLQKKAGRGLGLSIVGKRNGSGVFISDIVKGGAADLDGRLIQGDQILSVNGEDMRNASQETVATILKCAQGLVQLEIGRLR

LIN7B, Q9HAP6 = target: T6, LIN7B, Q9HAP6
T6 sequence (Q9HAP6 88-185, limits assumed, looked up): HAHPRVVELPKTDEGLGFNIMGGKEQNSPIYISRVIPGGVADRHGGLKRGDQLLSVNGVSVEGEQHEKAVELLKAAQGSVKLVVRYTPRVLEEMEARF

LNX1_1, Q8TBB1 = target: LNX1_1, Q8TBB1
Chain of LNX1_1, Q8TBB1 (Q8TBB1 261-371): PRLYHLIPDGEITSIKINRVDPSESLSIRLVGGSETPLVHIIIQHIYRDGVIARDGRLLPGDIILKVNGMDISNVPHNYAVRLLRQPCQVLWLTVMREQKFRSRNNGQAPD

LNX1_2, Q8TBB1 = target: LNX1_2, Q8TBB1
Chain of LNX1_2, Q8TBB1 (Q8TBB1 371-470): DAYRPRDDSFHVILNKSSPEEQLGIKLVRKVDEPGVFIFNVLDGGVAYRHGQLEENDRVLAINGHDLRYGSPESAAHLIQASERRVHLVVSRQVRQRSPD

MAGI1_1, Q96QZ7 = target: MAGI1_1, Q96QZ7
Chain of MAGI1_1, Q96QZ7 (Q96QZ7 1-106): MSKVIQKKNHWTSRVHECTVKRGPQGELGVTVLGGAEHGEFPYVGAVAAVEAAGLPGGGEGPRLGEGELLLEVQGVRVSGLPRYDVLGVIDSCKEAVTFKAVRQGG

MAGI2_4, Q86UL8 = target: MAGI2_4, Q86UL8
Chain of MAGI2_4, Q86UL8 (Q86UL8 772-865): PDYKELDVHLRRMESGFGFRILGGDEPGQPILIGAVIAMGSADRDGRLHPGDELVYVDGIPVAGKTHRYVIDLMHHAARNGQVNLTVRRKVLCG

MAGI2_6, Q86UL8 = target: MAGI2_6, Q86UL8
Chain of MAGI2_6, Q86UL8 (Q86UL8 1141-1229): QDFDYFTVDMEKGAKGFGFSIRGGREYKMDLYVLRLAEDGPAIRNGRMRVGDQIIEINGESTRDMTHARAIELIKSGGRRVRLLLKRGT

MPP2, Q14168 = target: T7, MPP2, Q14168
T7 sequence (Q14168 180-250, limits assumed, looked up): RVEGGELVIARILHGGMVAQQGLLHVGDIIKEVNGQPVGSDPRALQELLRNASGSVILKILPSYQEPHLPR

NHERF3_3, Q5T2W1 = target: T8, NHERF3_3, Q5T2W1
T8 sequence (Q5T2W1 238-333, limits assumed, looked up): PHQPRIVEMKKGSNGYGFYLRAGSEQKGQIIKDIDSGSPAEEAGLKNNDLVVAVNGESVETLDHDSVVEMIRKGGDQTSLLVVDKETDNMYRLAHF

NHERF4_4, Q86UT5 = target: NHERF4_4, Q86UT5
Chain of NHERF4_4, Q86UT5 (Q86UT5 464-550): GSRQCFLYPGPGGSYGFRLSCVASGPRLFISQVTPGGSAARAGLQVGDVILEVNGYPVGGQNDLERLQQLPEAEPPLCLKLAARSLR

PTPN13_1, Q12923 = target: T9, PTPN13_1, Q12923
T9 sequence (Q12923 1088-1188, limits assumed, looked up): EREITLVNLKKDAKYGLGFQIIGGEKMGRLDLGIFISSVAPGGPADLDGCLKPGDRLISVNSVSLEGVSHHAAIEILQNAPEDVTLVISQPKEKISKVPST

SNTG1, Q9NSN8 = target: T10, SNTG1, Q9NSN8
T10 sequence (Q9NSN8 52-150, limits assumed, looked up): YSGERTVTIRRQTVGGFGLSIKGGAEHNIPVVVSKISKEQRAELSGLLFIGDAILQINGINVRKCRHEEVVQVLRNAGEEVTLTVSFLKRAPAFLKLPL

TJP1_3, Q07157 = target: TJP1_3, Q07157
Chain of TJP1_3, Q07157 (Q07157 416-512): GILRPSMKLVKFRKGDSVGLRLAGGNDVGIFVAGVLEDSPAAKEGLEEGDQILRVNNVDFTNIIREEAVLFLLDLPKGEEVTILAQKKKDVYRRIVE

TJP3_3, O95049 = target: T11, TJP3_3, O95049
T11 sequence (O95049 375-456, limits assumed, looked up): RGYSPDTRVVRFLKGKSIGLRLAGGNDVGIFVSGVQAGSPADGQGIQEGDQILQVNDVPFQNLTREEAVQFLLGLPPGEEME

TX1BP3, O14907 = target: T12, TX1BP3, O14907
T12 sequence (O14907 10-122, limits assumed, looked up): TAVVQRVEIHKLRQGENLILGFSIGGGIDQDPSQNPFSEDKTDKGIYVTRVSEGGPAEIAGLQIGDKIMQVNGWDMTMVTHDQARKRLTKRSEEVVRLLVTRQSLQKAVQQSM

RTRQRNETQV [HPV51-E6, P26554] was tested, and the pKd (APBA1_1, Q02410) was “below the threshold”, the pKd (CASK, O14936) was “below the threshold” and the pKd (DLG3_1, Q92796) was 4.28. It also gave a pKd (DLG3_2, Q92796) of 5.1, a pKd (DLG3_3, Q92796) of 4.91 and a pKd (DLG4_2, P78352) of 4.99. For the same binder, the pKd (FRMPD2_3, Q68DX3) was “below the threshold”, the pKd (GIPC2, Q8TF65) was 3.63 and the pKd (GRIP1_2, Q9Y3R0) was 3.46. The pKd (Inadl_3, Q8NI35) was “below the threshold”, the pKd (Inadl_8, Q8NI35) was “below the threshold” and the pKd (Inadl_9, Q8NI35) was “below the threshold”. The pKd (LIN7B, Q9HAP6) was “below the threshold”, the pKd (LNX1_1, Q8TBB1) was “below the threshold” and the pKd (LNX1_2, Q8TBB1) was “below the threshold”. The pKd (MAGI1_1, Q96QZ7) was “below the threshold”, the pKd (MAGI2_4, Q86UL8) was 4.4 and the pKd (MAGI2_6, Q86UL8) was “below the threshold”. For the same binder, the pKd (MPP2, Q14168) was “below the threshold”, the pKd (NHERF3_3, Q5T2W1) was “below the threshold” and the pKd (NHERF4_4, Q86UT5) was “below the threshold”. For the same binder, the pKd (PTPN13_1, Q12923) was “below the threshold”, the pKd (SNTG1, Q9NSN8) was 3.98 and the pKd (TJP1_3, Q07157) was “below the threshold”. The pKd (TJP3_3, O95049) was “below the threshold” and the pKd (TX1BP3, O14907) was 4.13.

LCALPKVTTV [AGMAT, Q9BSE5] was tested, and the pKd (APBA1_1, Q02410) was “below the threshold”, the pKd (CASK, O14936) was “below the threshold” and the pKd (DLG3_1, Q92796) was 4.27. For the same binder, the pKd (DLG3_2, Q92796) was 5.31, the pKd (DLG3_3, Q92796) was 4.47 and the pKd (DLG4_2, P78352) was 5.29. The pKd (FRMPD2_3, Q68DX3) was “below the threshold”, the pKd (GIPC2, Q8TF65) was “below the threshold” and the pKd (GRIP1_2, Q9Y3R0) was “below the threshold”. The pKd (Inadl_3, Q8NI35) was 3.54, the pKd (Inadl_8, Q8NI35) was 4.82 and the pKd (Inadl_9, Q8NI35) was 3.52. It also gave a pKd (LIN7B, Q9HAP6) of 3.94, a pKd (LNX1_1, Q8TBB1) of 3.98 and a pKd (LNX1_2, Q8TBB1) of 4.42. The pKd (MAGI1_1, Q96QZ7) was “below the threshold”, the pKd (MAGI2_4, Q86UL8) was 4.55 and the pKd (MAGI2_6, Q86UL8) was 4.64. For the same binder, the pKd (MPP2, Q14168) was “below the threshold”, the pKd (NHERF3_3, Q5T2W1) was “below the threshold” and the pKd (NHERF4_4, Q86UT5) was “below the threshold”. The pKd (PTPN13_1, Q12923) was “below the threshold”, the pKd (SNTG1, Q9NSN8) was 4.39 and the pKd (TJP1_3, Q07157) was “below the threshold”. For the same binder, the pKd (TJP3_3, O95049) was “below the threshold” and the pKd (TX1BP3, O14907) was 4.07.

In the case of DPRNTQTSQI [ABRAXAS2, Q15018], the pKd (APBA1_1, Q02410) is reported as “below the threshold”, the pKd (CASK, O14936) is reported as 3.55 and the pKd (DLG3_1, Q92796) is reported as 3.56. The pKd (DLG3_2, Q92796) was 3.81, the pKd (DLG3_3, Q92796) was 3.66 and the pKd (DLG4_2, P78352) was 3.55. It also gave a pKd (FRMPD2_3, Q68DX3) of 3.54, a pKd (GIPC2, Q8TF65) of 3.54 and a pKd (GRIP1_2, Q9Y3R0) of 3.57. The pKd (Inadl_3, Q8NI35) was “below the threshold”, the pKd (Inadl_8, Q8NI35) was 3.54 and the pKd (Inadl_9, Q8NI35) was “below the threshold”. For the same binder, the pKd (LIN7B, Q9HAP6) was “below the threshold”, the pKd (LNX1_1, Q8TBB1) was “below the threshold” and the pKd (LNX1_2, Q8TBB1) was “below the threshold”. For the same binder, the pKd (MAGI1_1, Q96QZ7) was “below the threshold”, the pKd (MAGI2_4, Q86UL8) was “below the threshold” and the pKd (MAGI2_6, Q86UL8) was “below the threshold”. The pKd (MPP2, Q14168) was “below the threshold”, the pKd (NHERF3_3, Q5T2W1) was “below the threshold” and the pKd (NHERF4_4, Q86UT5) was “below the threshold”. For the same binder, the pKd (PTPN13_1, Q12923) was “below the threshold”, the pKd (SNTG1, Q9NSN8) was “below the threshold” and the pKd (TJP1_3, Q07157) was “below the threshold”. The pKd (TJP3_3, O95049) was “below the threshold” and the pKd (TX1BP3, O14907) was 3.71.
